{"source": "the supplement of paper PMC12042874", "note": "± gives the uncertainty stated by the source.", "data": [{"assay": "amyloid nucleation score (Sup35N fusion, yeast selection) (log enrichment); library NNK2; higher = more nucleation; inactive = no reads after selection", "procedure,_shortened": "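On medium lacking adenine and uracil, psi-negative yeast expressing peptides of 20 random codons fused to Sup35N were grown 7 days at 30°C after a 24-hour induction with 100 μM copper sulfate. Illumina sequencing of input and output plasmid inserts gave the reads, and sequences under 100 input reads were excluded. The nucleation score is the DiMSum log enrichment of output over input reads, centred on the mode score of non-aggregating sequences.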", "values": [{"substance": "QWVVLVD", "amyloid nucleation score": "-0.016 ± 0.65"}, {"substance": "QYCARAR", "amyloid nucleation score": "1.87 ± 0.4"}, {"substance": "QYDSSFT", "amyloid nucleation score": "-0.165 ± 0.55"}, {"substance": "QYGVLSSETLGCTVFKWYVS", "amyloid nucleation score": "0.468 ± 0.6"}, {"substance": "QYRCGRRLVQRSEVVIVPVC", "amyloid nucleation score": "inactive"}, {"substance": "QYSTSV", "amyloid nucleation score": "-0.548 ± 0.61"}, {"substance": "QYTRDFVRGTSQF", "amyloid nucleation score": "-0.949 ± 1.1"}, {"substance": "QYVSLYAVKRIVEIVQDKCA", "amyloid nucleation score": "0.012 ± 0.39"}, {"substance": "RAATYYQFVVLVCKQSDFKR", "amyloid nucleation score": "5.77 ± 0.095"}, {"substance": "RALRVRILYCEARRMCFMAN", "amyloid nucleation score": "0.236 ± 1.1"}, {"substance": "RANGLSFCTSLLLGEYLNNG", "amyloid nucleation score": "2.63 ± 0.078"}, {"substance": "RANGSSYEREVA", "amyloid nucleation score": "0.819 ± 0.47"}, {"substance": "RARFWINGFRVL", "amyloid nucleation score": "inactive"}, {"substance": "RATPTSLSIAMFCLFGHALL", "amyloid nucleation score": "5.87 ± 0.079"}, {"substance": "RATRLIRGTWYKKLKRVARI", "amyloid nucleation score": "1.32 ± 0.18"}, {"substance": "RATSVSILVQLGETLFCEYT", "amyloid nucleation score": "0.56 ± 0.2"}, {"substance": "RAVTRVKHICLSATRSCDVE", "amyloid nucleation score": "0.523 ± 0.21"}, {"substance": "RAYPNLENFLLWRMSNSYLC", "amyloid nucleation score": "-0.542 ± 0.63"}, {"substance": "RCEAAMWMLASYRVCVTLSC", "amyloid nucleation score": "-0.525 ± 1.1"}, {"substance": "RCGKCGLYS", "amyloid nucleation score": "0.067 ± 0.5"}, {"substance": "RCIDFDSSCASTNYGSVLWA", "amyloid nucleation score": "1.09 ± 0.38"}, {"substance": "RCLLTYSVEYWRIFGTSPDS", "amyloid nucleation score": "0.157 ± 0.5"}, {"substance": "RCLPSIFDPMRVTRVLPELY", "amyloid nucleation score": "-0.017 ± 1"}, {"substance": "RCTRSR", "amyloid nucleation score": "3.4 ± 0.12"}, {"substance": "RCYGVRTHGNLKQIMTKMTE", "amyloid nucleation score": "0.602 ± 0.24"}, {"substance": "RDFYRWNMQ", "amyloid nucleation score": "3.8 ± 0.069"}, {"substance": "RDIMR", "amyloid nucleation score": "0.57 ± 0.5"}, {"substance": "RDLASSSS", "amyloid nucleation score": "-1.1 ± 0.41"}, {"substance": "RDMGPLVNAPVA", "amyloid nucleation score": "0.282 ± 0.46"}, {"substance": "RDPVFIT", "amyloid nucleation score": "-1.44 ± 0.76"}, {"substance": "RDVFDMSSPTIAQCNVVRGM", "amyloid nucleation score": "-0.448 ± 0.32"}, {"substance": "RDVFTFYNKGEFERCQTLVY", "amyloid nucleation score": "0.092 ± 1.1"}, {"substance": "RDVVSLGLQEGNSRMRHTGG", "amyloid nucleation score": "0.82 ± 0.23"}, {"substance": "RDWRVFIYFMGNVVLDY", "amyloid nucleation score": "5.59 ± 0.08"}, {"substance": "REFLIYFCFQIMCCRTYGPA", "amyloid nucleation score": "5.125 ± 0.046"}, {"substance": "RERMRY", "amyloid nucleation score": "1.64 ± 0.18"}, {"substance": "RFAFFVYPTYMRMTVTVLSY", "amyloid nucleation score": "inactive"}, {"substance": "RFGFRSGPTSSRMWYSFLEF", "amyloid nucleation score": "3.15 ± 0.11"}, {"substance": "RFHFSDWR", "amyloid nucleation score": "inactive"}, {"substance": "RFLEALTVRHCSPL", "amyloid nucleation score": "4.71 ± 0.06"}, {"substance": "RFLTCGNFMR", "amyloid nucleation score": "0.214 ± 0.74"}, {"substance": "RFPVGRLFWQEFRYSDQGVA", "amyloid nucleation score": "1.17 ± 0.23"}, {"substance": "RFQWSCEVRESPPLNVDLMG", "amyloid nucleation score": "1.41 ± 0.44"}, {"substance": "RFRWTSVSRVKGCFNKMYPS", "amyloid nucleation score": "0.1 ± 0.3"}, {"substance": "RFSLYNLIIEVSAVVEFLWT", "amyloid nucleation score": "inactive"}, {"substance": "RFVIVIPQFYYVYFLRRSWT", "amyloid nucleation score": "-1.24 ± 1"}, {"substance": "RFWLNCCWRTCSTTFLNWMK", "amyloid nucleation score": "0.472 ± 0.6"}, {"substance": "RFYRSVNFKLYLVA", "amyloid nucleation score": "inactive"}, {"substance": "RGADIAVRNFFDYQRRRWCN", "amyloid nucleation score": "0.222 ± 0.44"}, {"substance": "RGCIGK", "amyloid nucleation score": "-0.161 ± 0.65"}, {"substance": "RGFVLETLWSMTIVVQKFNL", "amyloid nucleation score": "inactive"}, {"substance": "RGGVVNCRFRAHFMWL", "amyloid nucleation score": "5.779 ± 0.041"}, {"substance": "RGLLLSTMRGHIDSLRLS", "amyloid nucleation score": "inactive"}, {"substance": "RGSFYNGRS", "amyloid nucleation score": "0.049 ± 0.76"}, {"substance": "RGTAIKILYL", "amyloid nucleation score": "5.46 ± 0.069"}, {"substance": "RGVGYYRGSICTWFNWAAMW", "amyloid nucleation score": "1.83 ± 0.16"}, {"substance": "RGVYKHSPHLIT", "amyloid nucleation score": "-0.127 ± 1.1"}, {"substance": "RGYACCL", "amyloid nucleation score": "-0.574 ± 0.48"}, {"substance": "RGYDLVGSIIFSMQKRLRKK", "amyloid nucleation score": "-1.24 ± 1.1"}, {"substance": "RHADF", "amyloid nucleation score": "1.39 ± 0.27"}, {"substance": "RHGMNGRLTFLASTYSASRL", "amyloid nucleation score": "0.349 ± 0.22"}, {"substance": "RHKYMIKVILRHFTFIIIGS", "amyloid nucleation score": "-0.05 ± 0.62"}, {"substance": "RHRKMS", "amyloid nucleation score": "-0.496 ± 0.23"}, {"substance": "RIEIRQSLEDRLRAVSMAET", "amyloid nucleation score": "1.64 ± 0.3"}, {"substance": "RIFVIGNFVDCWLRLWT", "amyloid nucleation score": "0.256 ± 0.65"}, {"substance": "RIITGPGWTVAGSPVRGVRG", "amyloid nucleation score": "1.68 ± 0.19"}, {"substance": "RIKMGSSGNLCFIWSMHMYD", "amyloid nucleation score": "6.496 ± 0.044"}, {"substance": "RILLRRAKFGSR", "amyloid nucleation score": "0.432 ± 0.21"}, {"substance": "RIMTFFVMPDSRRRVDHNQV", "amyloid nucleation score": "0.074 ± 1"}, {"substance": "RINGRRWGFTWVASGLEYFG", "amyloid nucleation score": "1.87 ± 0.11"}, {"substance": "RINIFLRITFHNLLQLNRSG", "amyloid nucleation score": "6.04 ± 0.081"}, {"substance": "RISKRAHECLIMQG", "amyloid nucleation score": "-0.108 ± 1.1"}, {"substance": "RISLERGNDFVTWVVYMKWA", "amyloid nucleation score": "-0.081 ± 0.34"}, {"substance": "RIVCSNSWR", "amyloid nucleation score": "-0.113 ± 1.1"}, {"substance": "RIVMKRRFYCKSWSLIVHPG", "amyloid nucleation score": "-0.826 ± 0.28"}, {"substance": "RIYLGRQYYRSEGLKQLVNG", "amyloid nucleation score": "0.151 ± 0.63"}, {"substance": "RKEVCTVRNLHSRFRGGAIR", "amyloid nucleation score": "-0.119 ± 0.55"}, {"substance": "RKLIFVMTRRLGRSSRTVLM", "amyloid nucleation score": "0.112 ± 1.1"}, {"substance": "RKPLLHLVRFRWNNPLDNE", "amyloid nucleation score": "-1.03 ± 0.76"}, {"substance": "RKSYPRIYVHPSWKCVGDRY", "amyloid nucleation score": "0.066 ± 0.41"}, {"substance": "RKTLVGDNLNEGVKSWGWSR", "amyloid nucleation score": "-1.29 ± 0.45"}, {"substance": "RKWQED", "amyloid nucleation score": "0.488 ± 0.47"}, {"substance": "RLAVVLVPRIGYSSKSSETR", "amyloid nucleation score": "1.11 ± 0.34"}, {"substance": "RLCANDLIIGVEMGEGVFDY", "amyloid nucleation score": "1.1 ± 0.31"}, {"substance": "RLDMYGLLINWSSVCLYNNI", "amyloid nucleation score": "0.257 ± 0.21"}, {"substance": "RLEALRCLSYITSSSLYRCP", "amyloid nucleation score": "0.163 ± 0.41"}, {"substance": "RLEEDGSD", "amyloid nucleation score": "7.125 ± 0.067"}]}]}
